Experimental data: the supplement of paper PMC9170038

Test system: MS2 coat protein
Experiment: apparent KD of MS2 coat protein; designed switch direction (-1 OFF switch, 1 ON switch): -1; higher = weaker reporter binding
Outline: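 Three titration conditions were used: no input, 200 uM small-molecule ligand, and an oligonucleotide input. In each, SNAP-549-labelled MS2 coat protein was raised from 0.7 or 1.5 nM, doubling, to 3 µM over designed RNA switches transcribed on Illumina chips by stalled E. coli RNA polymerase. Curve fits of normalised cluster fluorescence gave values whose per-design median over clusters is the apparent KD.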

[1] = input ligand: microRNA oligo, concentration not stated
[2] = Eterna round: R95, input ligand: microRNA oligo, concentration not stated
[3] = Eterna round: R95, input ligand: FMN 200 uM
[4] = Eterna round: R95, input ligand: none

Sequence | apparent KD of MS2 coat protein (input ligand: FMN 200 uM) | apparent KD of MS2 coat protein (input ligand: none) | apparent KD of MS2 coat protein [1] | apparent KD of MS2 coat protein [2] | apparent KD of MS2 coat protein [3] | apparent KD of MS2 coat protein [4]
UUAUUGUGAGGAUAUAUAUGCAGUAAUCCUUUAAAUUUAUAACUUGAGGAUCACCCAAGUAGAAGGCGCGAUAU [JR_Ex2_Sub055] (Eterna round: R97, puzzle: Exclusion 2) | 33 nM | 24.9 nM |  |  |  | 
GGAAAACGCUGAGGAUAUGGAAGGAAAGGAAGACCAGAAGGCAGGGUCACACAACAUGAGGAUCACCCAUGUGUGUGUAGCGGA [exng1 ex3] (Eterna round: R96, puzzle: Exclusion NG 1) | 9.75 nM | 12.7 nM | 10.2 nM |  |  | 
AAUAACAGAGGAUAUACUAUUUUAUGUGUUUGUUGUUUUAAACAUGAGGAUCACCCAUGUAGAAGGCUGAAUAA [JMF 18] (puzzle: Exclusion 2) |  |  |  | 20 nM |  | 
AUCAAAGAAUAUCAUAAGCACAUGAGGAUCACCCAUGUGAUGGGUGAGAGCCUGAAAGCCACUUCUGCUCGUCUUAU [Cac Sensor turn off var1 sub9] (Eterna round: R97, puzzle: Sensor, turn-off variant 1) | 969 nM | 883 nM |  |  |  | 
UCAUGUUUAGAGGAUAUGAUUACUCUAGAGUGAUCAGAAGGCUAGACAUGAGGAUCACCCAUGUCAGAACAUGG [Exclusion 6 - B - 17:c] (puzzle: Exclusion 6) |  |  |  | 21.5 nM | 27.5 nM | 29.1 nM
AUAAUGUGAGGAUAUCGAGACUACUGCUGCGGCAGUAGUCUCGAGAAGGCACAUGAGGAUCACCCAUGUGAUCA [E4/2-A3] (Eterna round: R97, puzzle: Exclusion 4) | 89.7 nM | 1590 nM |  |  |  | 
AUUGUAUGAGGAUAUACACCAGUGGGAGUGUCUUGCGUGAUACAUGAGGAUCACCCAUGUAGAAGGCGUACUAC [Eternabot (L2) Solution 90] (Eterna round: R97, puzzle: Exclusion 2) | 36.9 nM | 16 nM |  |  |  | 
AAAGAAGAGAGAAAACAACACAUGAGGAUCACCCAUGUGAGAAGAUGAGGGUGAUACAGGCUAUAUGCUCGUCUUAU (puzzle: Sensor v3, turn-off variant 1) |  |  |  | 281 nM | 55 nM | 52.4 nM
GAUCCACAUGAGGAUCACCCAUGUUAGGAUAUUCAGCCUUGGUCACGGGAGUCAGGGCGGAGAAGGAACCCUUU [Eternabot (L2) Solution 16] (Eterna round: R97, puzzle: Exclusion 1) | 14.4 nM | 13 nM |  |  |  | 
AUGACCUAAGGAUAUACAUGAGGAUCACCCAUGUCAGGUAAGCCUGUCCGCGGUGCAUGUAGAAGGUAGCUACC [EX3 A.27] (Eterna round: R97, puzzle: Exclusion 3) | 122 nM | 116 nM |  |  |  | 
AACGUGGCAAAGGAUAUCCACACGGCAAAGCCGGGAGAAGGUUGCACAUGAGGAUCACCCAUGUGAACCAAACA [Onsozamati] (puzzle: Exclusion 6) |  |  |  | 13.6 nM |  | 
AAUAGCAAGUAAGAUCCUAACAUGAGGAUCACCCAUGUGCUCGUCUUAUAAAGUACUAUCACGAAAGUGAUAGUACA [Sensor 3, v1 - 47] (puzzle: Sensor v3, turn-off variant 1) |  |  |  | 51.4 nM | 64.8 nM | 74.3 nM
GUAGAGUCAGGAUAUACGAGAUCGAAAGAUCAGUGAUCCUUACAUGAGGAUCACCCAUGUAGAAGGGACUCUAC [Omei mod 8 to Eli's favorate candidate (ch.parushev)] (Eterna round: R97, puzzle: Exclusion 2) | 41.9 nM | 388 nM |  |  |  | 
GUCAGCUCGUCAGGAUAUAUAUAUACAUGAGGAUCACCCAUGUUAGAUCAGCUUCGGCAGUAUAUAUAGAAGGGACGAGCUGAC [ENG2/15-B1] (Eterna round: R96, puzzle: Exclusion NG 2) | 153 nM | 72.5 nM | 59 nM |  |  | 
AUAAGCCCGGCAGGAUAUCACAGGUUGCCGGGUAUCAACAUGAGGAUCACCCAUGUACACCUGCUUGAGAAGGGCCCAAGGGCG [Inarza] (Eterna round: R96, puzzle: Exclusion NG 2) | 163 nM | 80.3 nM | 69.6 nM |  |  | 
AUGAGCAGACGGAGAUCCAACAUGAGGAUCACCCAUGUCUCAAAAGCUUUUUGCUCAUCUUAUUGUACCUUGGUGCG [Mat - Sensor v3 - turn-off var 1 - JL Mod - D18] (puzzle: Sensor v3, turn-off variant 1) |  |  |  | 9.21 nM | 161 nM | 170 nM
